The values below come from PMC9267027.

The test has as its target Amy117, neopullulanase (NPase) from B. pseudofirmus 703 (B. pseudofirmus 703). The test is described as follows: AUC; sedimentation velocity, 50 mM Na2HPO4-NaH2PO4 buffer pH 7.0, 20 °C, 38,000 rpm, absorbance at 280 nm, c(s) model in SEDFIT; oligomeric state.

Several values for one entry are separate records, joined by “and”; a condition that tells them apart may be missing. Identical values can stand only once.

For “Amy117, neopullulanase (NPase) from B. pseudofirmus 703 (enzyme)”, the percent as a tetramer stood at 3.3%; the percent in the dimerized form is 68.7%; the percent in the monomeric form is 24.3%; the stoichiometry N is 2 and 4.
